Earlier results as cited in paper PMC11036797.

Legend:
FZD2 (Homo sapiens) = FZD2 (Homo sapiens) (UniProt Q14332)
FZD7 (Homo sapiens) = FZD7 (Homo sapiens) (UniProt O75084)
nectin-3 (Homo sapiens) = nectin-3 (Homo sapiens) (UniProt Q9NQS3)
FZD1 (Homo sapiens) = FZD1 (Homo sapiens) (UniProt Q9UP38)
CSPG4 (Homo sapiens) = CSPG4 (Homo sapiens) (UniProt Q6UVK1)
CSPG4 (Homo sapiens), sequence (Q6UVK1 30-2322): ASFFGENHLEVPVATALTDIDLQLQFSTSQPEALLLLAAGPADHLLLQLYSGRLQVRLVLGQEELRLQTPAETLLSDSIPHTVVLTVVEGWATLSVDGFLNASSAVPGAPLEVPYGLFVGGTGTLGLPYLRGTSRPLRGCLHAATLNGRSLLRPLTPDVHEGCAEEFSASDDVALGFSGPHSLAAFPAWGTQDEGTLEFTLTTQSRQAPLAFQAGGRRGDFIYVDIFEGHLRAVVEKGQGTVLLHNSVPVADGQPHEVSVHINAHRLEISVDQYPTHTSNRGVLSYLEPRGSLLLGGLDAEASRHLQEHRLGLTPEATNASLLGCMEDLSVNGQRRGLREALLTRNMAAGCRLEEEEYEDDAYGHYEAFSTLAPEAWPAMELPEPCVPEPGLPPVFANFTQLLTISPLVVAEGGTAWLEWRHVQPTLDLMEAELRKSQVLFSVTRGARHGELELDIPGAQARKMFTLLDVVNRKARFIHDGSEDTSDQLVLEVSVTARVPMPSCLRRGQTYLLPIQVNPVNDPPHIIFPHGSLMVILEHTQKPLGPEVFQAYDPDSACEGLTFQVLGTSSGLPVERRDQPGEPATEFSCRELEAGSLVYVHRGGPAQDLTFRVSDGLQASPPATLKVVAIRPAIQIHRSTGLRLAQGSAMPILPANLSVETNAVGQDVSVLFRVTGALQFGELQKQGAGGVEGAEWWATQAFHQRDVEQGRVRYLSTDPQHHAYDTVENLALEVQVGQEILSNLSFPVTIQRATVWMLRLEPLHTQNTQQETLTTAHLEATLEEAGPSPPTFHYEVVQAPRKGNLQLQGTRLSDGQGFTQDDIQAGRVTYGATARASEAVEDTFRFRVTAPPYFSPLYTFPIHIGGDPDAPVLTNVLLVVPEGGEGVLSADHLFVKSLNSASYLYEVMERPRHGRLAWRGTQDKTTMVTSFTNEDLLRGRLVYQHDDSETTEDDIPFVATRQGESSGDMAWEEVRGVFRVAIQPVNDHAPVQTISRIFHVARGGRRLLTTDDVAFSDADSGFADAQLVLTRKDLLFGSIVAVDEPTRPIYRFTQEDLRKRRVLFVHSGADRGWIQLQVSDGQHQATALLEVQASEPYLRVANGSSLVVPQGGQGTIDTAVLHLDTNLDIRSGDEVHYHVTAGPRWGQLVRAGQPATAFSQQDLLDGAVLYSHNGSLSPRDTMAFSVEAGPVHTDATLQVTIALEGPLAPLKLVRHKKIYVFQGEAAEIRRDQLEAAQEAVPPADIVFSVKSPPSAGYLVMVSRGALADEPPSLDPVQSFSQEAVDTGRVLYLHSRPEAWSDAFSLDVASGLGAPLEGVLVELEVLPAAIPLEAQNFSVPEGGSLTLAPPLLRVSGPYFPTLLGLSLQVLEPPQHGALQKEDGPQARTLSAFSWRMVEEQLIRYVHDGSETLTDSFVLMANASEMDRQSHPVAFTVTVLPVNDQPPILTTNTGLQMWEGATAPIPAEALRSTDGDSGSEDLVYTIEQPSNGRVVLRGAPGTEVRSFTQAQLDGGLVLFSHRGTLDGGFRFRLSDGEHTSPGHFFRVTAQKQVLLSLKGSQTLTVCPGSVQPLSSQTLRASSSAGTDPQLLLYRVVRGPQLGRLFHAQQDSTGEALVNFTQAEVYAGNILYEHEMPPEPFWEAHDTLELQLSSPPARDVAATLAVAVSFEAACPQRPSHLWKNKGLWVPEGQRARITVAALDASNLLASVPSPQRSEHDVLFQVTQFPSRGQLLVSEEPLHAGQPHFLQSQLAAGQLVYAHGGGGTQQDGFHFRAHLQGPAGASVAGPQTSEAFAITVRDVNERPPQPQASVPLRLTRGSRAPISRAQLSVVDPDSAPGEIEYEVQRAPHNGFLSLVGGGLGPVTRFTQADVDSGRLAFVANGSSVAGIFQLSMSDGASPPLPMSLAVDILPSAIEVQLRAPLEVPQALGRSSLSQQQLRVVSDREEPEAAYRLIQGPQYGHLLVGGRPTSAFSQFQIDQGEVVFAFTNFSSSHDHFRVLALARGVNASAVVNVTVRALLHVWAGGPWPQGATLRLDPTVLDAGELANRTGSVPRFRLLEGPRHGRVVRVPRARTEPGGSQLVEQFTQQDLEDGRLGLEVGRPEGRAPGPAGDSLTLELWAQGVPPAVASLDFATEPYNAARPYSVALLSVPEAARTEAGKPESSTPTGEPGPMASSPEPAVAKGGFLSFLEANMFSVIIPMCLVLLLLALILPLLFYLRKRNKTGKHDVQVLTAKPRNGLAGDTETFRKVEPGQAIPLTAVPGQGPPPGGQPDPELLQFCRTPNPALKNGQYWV

FZD2 (Homo sapiens), sequence (Q14332 24-565): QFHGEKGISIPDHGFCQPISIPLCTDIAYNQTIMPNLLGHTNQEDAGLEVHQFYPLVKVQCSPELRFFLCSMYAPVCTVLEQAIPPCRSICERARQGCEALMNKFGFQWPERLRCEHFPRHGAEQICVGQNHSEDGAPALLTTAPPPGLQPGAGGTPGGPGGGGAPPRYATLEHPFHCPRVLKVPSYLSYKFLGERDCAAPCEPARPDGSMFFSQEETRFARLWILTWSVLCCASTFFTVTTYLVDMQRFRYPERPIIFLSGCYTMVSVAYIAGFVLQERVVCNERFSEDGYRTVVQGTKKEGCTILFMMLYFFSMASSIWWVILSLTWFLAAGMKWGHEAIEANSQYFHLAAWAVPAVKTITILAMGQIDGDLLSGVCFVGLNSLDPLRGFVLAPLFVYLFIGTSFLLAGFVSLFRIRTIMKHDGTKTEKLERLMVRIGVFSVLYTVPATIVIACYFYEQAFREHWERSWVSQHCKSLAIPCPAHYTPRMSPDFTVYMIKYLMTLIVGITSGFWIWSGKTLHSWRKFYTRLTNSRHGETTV
FZD1 (Homo sapiens), sequence (Q9UP38 70-647): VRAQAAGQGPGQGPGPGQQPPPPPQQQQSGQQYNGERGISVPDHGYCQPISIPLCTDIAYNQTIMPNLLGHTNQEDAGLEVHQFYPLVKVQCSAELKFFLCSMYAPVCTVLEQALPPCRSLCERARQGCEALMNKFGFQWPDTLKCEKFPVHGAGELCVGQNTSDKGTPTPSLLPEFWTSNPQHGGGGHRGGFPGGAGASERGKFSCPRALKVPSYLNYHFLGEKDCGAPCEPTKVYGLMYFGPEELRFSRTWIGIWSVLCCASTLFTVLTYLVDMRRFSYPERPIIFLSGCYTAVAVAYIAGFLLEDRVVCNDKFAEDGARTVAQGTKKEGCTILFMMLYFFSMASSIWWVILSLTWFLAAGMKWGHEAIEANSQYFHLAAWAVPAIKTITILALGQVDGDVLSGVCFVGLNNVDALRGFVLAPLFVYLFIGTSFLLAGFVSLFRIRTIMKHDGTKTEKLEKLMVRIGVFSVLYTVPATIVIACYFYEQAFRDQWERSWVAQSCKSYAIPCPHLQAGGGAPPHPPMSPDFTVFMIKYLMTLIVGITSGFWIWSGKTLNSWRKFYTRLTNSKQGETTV
nectin-3 (Homo sapiens), sequence (Q9NQS3 58-549): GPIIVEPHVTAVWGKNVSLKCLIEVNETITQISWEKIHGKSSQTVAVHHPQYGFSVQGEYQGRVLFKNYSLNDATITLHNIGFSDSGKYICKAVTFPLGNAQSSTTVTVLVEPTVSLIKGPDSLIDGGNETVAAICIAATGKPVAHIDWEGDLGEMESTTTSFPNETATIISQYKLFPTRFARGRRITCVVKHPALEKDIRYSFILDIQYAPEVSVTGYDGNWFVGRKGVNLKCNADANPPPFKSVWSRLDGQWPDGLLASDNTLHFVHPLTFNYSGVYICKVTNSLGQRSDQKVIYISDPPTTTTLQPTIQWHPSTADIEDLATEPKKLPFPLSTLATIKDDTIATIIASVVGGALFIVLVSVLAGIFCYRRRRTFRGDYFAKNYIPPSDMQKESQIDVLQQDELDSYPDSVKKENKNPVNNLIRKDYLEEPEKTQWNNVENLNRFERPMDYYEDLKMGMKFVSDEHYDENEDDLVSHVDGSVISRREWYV

For TcdB1 (from UniProt P18177), the Kd (FZD2 (Homo sapiens)) is given as 19 nM, the Kd (FZD7 (Homo sapiens)) is given as 27 nM and the Kd (nectin-3 (Homo sapiens)) is given as 53 nM. The Kd (FZD1 (Homo sapiens)) was 32 nM and the Kd (CSPG4 (Homo sapiens)) was 15.2 nM.
